Results as given in patent US6858210B1, “Therapeutic and diagnostic domain 1 β2GPI polypeptides and methods of using same” (La Jolla Pharmaceutical Co., priority 1998, dated 2005).
Where two headings read alike, the source gives them in different places.

Assays:
[1] = system: human β2GPI-dependent antiphospholipid antibody; assay: Micropanning of mutant domain 1 phage, patient antibodies; format: binding; settings: Table 7B
[2] = system: rabbit anti-human β2GPI; assay: Micropanning of mutant domain 1 phage, rabbit antibody; format: binding; design: key: 0 (<10 colonies) to 4+ (confluent) semiquantitative colony score; settings: Table 7B, 5th column
Method in brief: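 Phage displaying error-prone-PCR mutants of β2GPI domain 1 (aa 1-64, fused to pIII N-terminus) incubated 2 h at RT with protein G-captured rabbit β2GPI-dependent antiphospholipid antibody (2.5 μg/mL); acid-eluted bound phage infected into E. coli. Colonies spotted and scored semiquantitatively 0 to 4+; run on two occasions.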

[3] = system: affinity purified β2GPI-dependent antiphospholipid antibody; assay: Competitive inhibition ELISA: recombinant β2GPI proteins compete for antibody binding to coated full length recombinant β2GPI; design: species or system human; settings: for IC50: read-out: 50% (concentration to give 50% inhibition)
Experimental: Microtiter plates (MaxiSorp™, Nalge Nunc International, Denmark) were coated with 50 μl of full length recombinant β2GPI at 10 μg/ml in 0.1 M bicarbonate, pH 9.5, incubated overnight at 4° C., washed three times with 0.15 M PBS, pH 7.2, and blocked for one hour at room temperature with 75 μl of 2% Non-fat Dried Milk (Carnation, 2% NFDM). Test inhibitors were diluted in 2% NFDM and 25 μl of each dilution was added to coated wells. Affinity purified β2GPI-dependent antiphospholipid antibody was diluted in 2% NFDM and 25 μl, of a constant concentration, was added to the wells, including a group of wells that had no inhibitor, which acted as the positive controls. The contents of the wells were mixed and the plates were incubated at 37° C. for one hour. The plates were washed three times with PBS, 50 μl of alkaline phosphatase conjugated anti-human IgG, gamma chain specific, (Zymed #62-8422) diluted appropriately in 2% NFDM was added and incubated at 37° C. for one hour. The plates were washed three times with PBS, 50 μl of alkaline phosphatase PPMP chromogenic substrate solution was added and incubated for 30 minutes, at room temperature. The Optical Density, at 550 nm, was determined by reading the plates in a microplate autoreader (Bio-Teck Instruments, model EL3 11). The percent inhibition was determined by dividing the OD550 obtained in the presence of inhibitor by the mean OD550 obtained from the wells without inhibitor and then multiplying by 100 (more particularly, [mean A550 obtained from control wells without inhibitor less A550 of background] minus [A550 obtained in presence of inhibitor less A550 of background] divided by [mean A550 obtained from control wells without inhibitor less A550 of background] times 100).
Seven to nine different recombinant β2GPI mutant proteins were used to determine the antigenic specificity of affinity purified β2GPI-dependent antiphospholipid antibody preparations from 13 different patients. Each mutant recombinant β2GPI protein was tested, in a dose dependent fashion, for its ability to inhibit affinity purified β2GPI-dependent antiphospholipid antibody from binding to full length recombinant β2GPI. The following values were also observed for domain 1 only recombinant protein (1 - - - -; see Table 2 for designations): […]

[4] = system: rabbit anti-β2GPI; assay: Direct binding ELISA, nickel chelate-coated wells, rabbit antibody; settings: O.D. at 550 nm
Experimental: (§1) Nickel Chelate-coated microwell plates (NCP 010 00 Xenopore Corp. 374 Midland Ave. Saddle Brook, N.J. USA) were coated with 50 μl of serial dilutions of the various recombinant β2GPI, in PBS, at room temperature for 2 hours. The plates were washed three times with PBS and blocked with 75 μl of a 1% gelatin (Sigma #G-2500) in PBS for one hour room temperature. […] The plates were washed three times with PBS, 50 μl of alkaline phosphatase conjugated anti-immunoglobulin (anti-human IgG, gamma chain specific, Zymed #62-8422) or anti-rabbit IgG (Zymed #62-6122) diluted appropriately in 1% gelatin was added and incubated at 37° C. for one hour. The plates were washed three times with PBS, 50 μl of alkaline phosphatase PPMP chromogenic substrate solution was added and incubated for 30 minutes at room temperature. The optical density, at 550 nm, was determined by reading the plates in a microplate autoreader (Bio-Teck Instruments, model EL311).
(§2) Seven to nine different recombinant β2GPI mutant proteins were examined to determine if they could support the direct binding of affinity purified β2GPI-dependent antiphospholipid antibody preparations in the absence of anionic phospholipid. All recombinant mutant β2GPI were assayed with affinity purified β2GPI-dependent antiphospholipid antibody preparations from 11 different patients. Each mutant recombinant β2GPI protein was tested, in a dose dependent fashion and GST-6his was included as a negative control. The recombinant mutant β2GPI proteins were bound to nickel coated microtiter plates via their 6-his tail. All recombinant mutant β2GPI proteins tested bound rabbit anti-β2GPI showing that they were assessable by antibody (FIG. 5).

[5] = system: affinity purified β2GPI-dependent antiphospholipid antibody; assay: Direct binding ELISA, nickel chelate-coated wells charged with recombinant β2GPI proteins (no cardiolipin); design: species or system human; settings: O.D. at 550 nm
Experimental: as §1, §2

B1: 4G8: phage clone, domain 1 mutant P11L (protein)
chain: GRTCPKPDDLLFSTVVPLKTFYEPGEEITYSCKPGYVSRGGMRKFICPLTGLWPINTLKCTPRVAETVESCLAKLHTENSFTNVWKDDKTLDRYANYEGCLWNATGVVVCTGDETQCYGTWVPIGLAIPENEGGGSEGGGSEGGGSEGGGTKPPEYGDTPIPGYTYINPLDGTYPPGTEQNPANPNPSLEESQPLNTFMFQNNRFRNRQGALTVYTGTVTQGTDPVKTYYQYTPVSSKAMYDAYWNGKFRDCAFHSGFNEDPFVCEYQGQSSDLPQPPVNAGGGSGGGSGGGSEGGGSEGGGSEGGGSEGGGSGGGSGSGDFDYEKMANANKGAMTENADENALQSDAKGKLDSVATDYGAAIDGFIGDVSGLANGNGATGDFAGSNSQMAQVGDGDNSPLMNNFRQYLPSLPQSVECRPYVFGAGKPYEFSIDCDKINLFRGVFAFLLYVATFMYVFSTFANILRNKES
Micropan score ([1]; antibody 6226): 2 | Micropan score ([1]; antibody 6501): 2 | Micropan score ([1]; antibody 6632): 2 | Micropan score ([1]; antibody 6644): 3 | Micropan score ([1]; antibody 6701): 2 | Micropan score ([1]; antibody 7008): 3 | Micropan score [2]: 4

B2: 4A6: phage clone, domain 1 mutant D8G (protein)
chain: GRTCPKPGDLPFSTVVPLKTFYEPGEEITYSCKPGYVSRGGMRKFICPLTGLWPINTLKCTPRV
Micropan score ([1]; antibody 6226): 2 | Micropan score ([1]; antibody 6501): 2 | Micropan score ([1]; antibody 6632): 2 | Micropan score ([1]; antibody 6644): 3 | Micropan score ([1]; antibody 6701): 2 | Micropan score ([1]; antibody 7008): 2 | Micropan score [2]: 4

B3: 123--: recombinant β2GPI deletion mutant with domains 1, 2, 3 (protein)
chain: GRTCPKPDDLPFSTVVPLKTFYEPGEEITYSCKPGYVSRGGMRKFICPLTGLWPINTLKCTPRVCPFAGILENGAVRYTTFEYPNTISFSCNTGFYLNGADSAKCTEEGKWSPELPVCAPIICPPPSIPTFATLRVYKPSAGNNSLYRDTAVFECLPQHAMFGNDTITCTTHGNWTKLPECGHHHHHH
Max (maximum inhibition observed at concentrations tested) ([3]; Ab 6203): 75% | IC50 ([3]; Ab 6203): 1000 nM | Max (maximum inhibition observed at concentrations tested) ([3]; Ab 6501): 85% | IC50 ([3]; Ab 6501): 800 nM | Max (maximum inhibition observed at concentrations tested) ([3]; Ab 6509): 90% | IC50 ([3]; Ab 6509): 300 nM | Max (maximum inhibition observed at concentrations tested) ([3]; Ab 6626): 90% | IC50 ([3]; Ab 6626): 800 nM | Max (maximum inhibition observed at concentrations tested) ([3]; Ab 6632): 90% | IC50 ([3]; Ab 6632): 200 nM | Max (maximum inhibition observed at concentrations tested) ([3]; Ab 6641): 60% | IC50 ([3]; Ab 6641): 4000 nM | Max (maximum inhibition observed at concentrations tested) ([3]; Ab 6644): 90% | IC50 ([3]; Ab 6644): 700 nM | Max (maximum inhibition observed at concentrations tested) ([3]; Ab 6652): 95% | IC50 ([3]; Ab 6652): 300 nM | Max (maximum inhibition observed at concentrations tested) ([3]; Ab 6701): 95% | IC50 ([3]; Ab 6701): 300 nM | Max (maximum inhibition observed at concentrations tested) ([3]; Ab 7008): 80% | IC50 ([3]; Ab 7008): 400 nM | Max (maximum inhibition observed at concentrations tested) ([3]; Ab 7015): 90% | IC50 ([3]; Ab 7015): 700 nM | Max (maximum inhibition observed at concentrations tested) ([3]; Ab 7101): 70% | IC50 ([3]; Ab 7101): 3000 nM | Max (maximum inhibition observed at concentrations tested) ([3]; Ab 7104): 98% | IC50 ([3]; Ab 7104): 1000 nM | Maximum O.D. [4]: 1.971 | Maximum O.D. ([5]; Ab 6203): 0.938 | Maximum O.D. ([5]; Ab 6501): 0.909 | Maximum O.D. ([5]; Ab 6626): 1.250 | Maximum O.D. ([5]; Ab 6632): 0.121 | Maximum O.D. ([5]; Ab 6641): 0.530 | Maximum O.D. ([5]; Ab 6644): 1.020 | Maximum O.D. ([5]; Ab 6652): 0.320 | Maximum O.D. ([5]; Ab 6701): 0.841 | Maximum O.D. ([5]; Ab 7008): 0.360 | Maximum O.D. ([5]; Ab 7015): 1.160 | Maximum O.D. ([5]; Ab 7101): 0.951

B4: 1234-: recombinant β2GPI deletion mutant with domains 1, 2, 3, 4 (protein)
chain: GRTCPKPDDLPFSTVVPLKTFYEPGEEITYSCKPGYVSRGGMRKFICPLTGLWPINTLKCTPRVCPFAGILENGAVRYTTFEYPNTISFSCNTGFYLNGADSAKCTEEGKWSPELPVCAPIICPPPSIPTFATLRVYKPSAGNNSLYRDTAVFECLPQHAMFGNDTITCTTHGNWTKLPECREVKCPFPSRPDNGFVNYPAKPTLYYKDKATFGCHDGYSLDGPEEIECTKLGNWSAMPSCGHHHHHH
Max (maximum inhibition observed at concentrations tested) ([3]; Ab 6203): 30% | IC50 ([3]; Ab 6203): > 8000 nM | Max (maximum inhibition observed at concentrations tested) ([3]; Ab 6501): 30% | IC50 ([3]; Ab 6501): > 8000 nM | Max (maximum inhibition observed at concentrations tested) ([3]; Ab 6509): 80% | IC50 ([3]; Ab 6509): 3000 nM | Max (maximum inhibition observed at concentrations tested) ([3]; Ab 6626): 40% | IC50 ([3]; Ab 6626): > 8000 nM | Max (maximum inhibition observed at concentrations tested) ([3]; Ab 6632): 60% | IC50 ([3]; Ab 6632): 2000 nM | Max (maximum inhibition observed at concentrations tested) ([3]; Ab 6641): 60% | IC50 ([3]; Ab 6641): 2000 nM | Max (maximum inhibition observed at concentrations tested) ([3]; Ab 6644): 50% | IC50 ([3]; Ab 6644): 8000 nM | Max (maximum inhibition observed at concentrations tested) ([3]; Ab 6652): 100% | IC50 ([3]; Ab 6652): 500 nM | Max (maximum inhibition observed at concentrations tested) ([3]; Ab 6701): 30% | IC50 ([3]; Ab 6701): > 8000 nM | Max (maximum inhibition observed at concentrations tested) ([3]; Ab 7008): 50% | IC50 ([3]; Ab 7008): > 8000 nM | Max (maximum inhibition observed at concentrations tested) ([3]; Ab 7015): 50% | IC50 ([3]; Ab 7015): 8000 nM | Max (maximum inhibition observed at concentrations tested) ([3]; Ab 7101): 20% | IC50 ([3]; Ab 7101): > 8000 nM | Max (maximum inhibition observed at concentrations tested) ([3]; Ab 7104): 90% | IC50 ([3]; Ab 7104): 700 nM | Maximum O.D. [4]: 1.708 | Maximum O.D. ([5]; Ab 6203): 0.668 | Maximum O.D. ([5]; Ab 6501): 0.628 | Maximum O.D. ([5]; Ab 6626): 0.563 | Maximum O.D. ([5]; Ab 6632): 0.003 | Maximum O.D. ([5]; Ab 6641): 0.145 | Maximum O.D. ([5]; Ab 6644): 0.768 | Maximum O.D. ([5]; Ab 6652): 0.135 | Maximum O.D. ([5]; Ab 6701): 0.715 | Maximum O.D. ([5]; Ab 7008): 0.149 | Maximum O.D. ([5]; Ab 7015): 0.454 | Maximum O.D. ([5]; Ab 7101): 0.843
